Data as given in US20260152730A1.

Legend:
[1] = target: domain 11 of the CI-M6P/IGF2R; experiment: competitive ELISA on domain 11 of CI-M6P/IGF2R; cold ligand 1-500 nM against 8 nM biotinylated IGF2
[2] = target: insulin receptor isoform-A (IR-A); experiment: competitive ELISA on IR-A; cold ligand 1-500 nM against 0.8 nM biotinylated insulin

IC50 [1] [µM] | times increased IC50 against Δ1-6.IGF2 peptide [1] [times] | IC50 [2] [µM] | fold lower affinity than Δ1-6.IGF2 peptide [2] [fold] | Substance
0.0617 | 12.3 | 0.251 | 150 | IDS.IGF2 (construct 2): IDS tagged C-terminally with aa 1, 8-67 of the mature human IGF2 (from UniProt P22304)
0.00501 | – | 0.00161 | – | IGF2 peptide carrying a mutation of AA 1-6 (Δ1-6.IGF2 peptide) (from UniProt P01344) (ligand)
